Assay results from publication PMC8137956, “Orphan GPR116 mediates the insulin sensitizing effects of the hepatokine FNDC4 in adipose tissue” (Nature Communications, 2021).

What was measured:
[1] = target: T1, human GPR116 with C-terminal fused FLAG, stably overexpressed (human, UniProt Q8IZF2 22-1346); assay: flow cytometry on cells; saturation binding of FcsFNDC4 or Fc control on HEK293T cells with stable human GPR116-FLAG OE or mock cells; also in excess of sFNDC4 (1 mM) for non-specific binding; 4 °C, PBS with 3% FBS; anti-human IgG-PE; Kd from specific binding; settings: one partner purified
T1 construct: human GPR116, recombined from the pEntry1a GPR116 plasmid into plenti6/V5 DEST; Same construct in two HEK293 lines; also called GPR116 OE; HEK293T GPR116 (human) OE cells; not shown: FLAG, C-terminal, kept
T1 sequence (looked up): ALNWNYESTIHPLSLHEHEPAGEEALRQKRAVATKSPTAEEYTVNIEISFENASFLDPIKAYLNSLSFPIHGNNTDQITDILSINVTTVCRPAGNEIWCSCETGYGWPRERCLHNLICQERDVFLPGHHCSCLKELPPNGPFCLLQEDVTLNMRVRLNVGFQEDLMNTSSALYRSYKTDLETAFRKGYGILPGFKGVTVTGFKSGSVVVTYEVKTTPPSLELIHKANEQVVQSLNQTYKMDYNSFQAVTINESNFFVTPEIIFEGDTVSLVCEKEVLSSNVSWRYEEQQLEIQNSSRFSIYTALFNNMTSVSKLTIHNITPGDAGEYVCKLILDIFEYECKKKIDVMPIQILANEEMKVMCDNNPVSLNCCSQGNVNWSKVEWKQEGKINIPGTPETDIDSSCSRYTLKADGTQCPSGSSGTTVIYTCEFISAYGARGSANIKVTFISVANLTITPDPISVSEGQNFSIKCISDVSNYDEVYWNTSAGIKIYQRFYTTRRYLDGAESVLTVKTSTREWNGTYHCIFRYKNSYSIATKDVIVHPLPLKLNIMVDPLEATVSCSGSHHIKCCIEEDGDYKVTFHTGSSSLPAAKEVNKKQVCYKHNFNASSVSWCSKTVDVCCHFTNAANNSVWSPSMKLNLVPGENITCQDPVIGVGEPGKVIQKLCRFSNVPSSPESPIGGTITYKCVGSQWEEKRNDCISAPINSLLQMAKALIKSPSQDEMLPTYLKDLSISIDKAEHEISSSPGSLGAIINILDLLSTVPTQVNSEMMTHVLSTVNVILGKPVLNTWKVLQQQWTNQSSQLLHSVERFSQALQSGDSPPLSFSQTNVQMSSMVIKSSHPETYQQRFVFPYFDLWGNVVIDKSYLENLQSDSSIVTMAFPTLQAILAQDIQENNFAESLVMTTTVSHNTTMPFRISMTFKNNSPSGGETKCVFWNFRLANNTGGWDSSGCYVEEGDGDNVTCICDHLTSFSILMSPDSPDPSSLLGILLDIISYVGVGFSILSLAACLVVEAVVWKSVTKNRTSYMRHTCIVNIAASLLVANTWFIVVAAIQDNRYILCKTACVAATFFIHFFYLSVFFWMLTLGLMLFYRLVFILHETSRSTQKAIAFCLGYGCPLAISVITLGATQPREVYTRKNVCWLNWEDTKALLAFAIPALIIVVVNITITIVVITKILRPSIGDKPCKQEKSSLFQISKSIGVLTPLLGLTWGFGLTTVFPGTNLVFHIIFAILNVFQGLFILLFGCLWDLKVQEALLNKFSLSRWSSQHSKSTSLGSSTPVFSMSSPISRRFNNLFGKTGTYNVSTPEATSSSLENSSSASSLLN

[2] = target: T1, human GPR116 with C-terminal fused …; assay: flow cytometry on cells; saturation binding of FcsFNDC4 or Fc control on HEK293A cells with stable human GPR116-FLAG OE or mock cells; 4 °C, PBS with 3% FBS; anti-human IgG-PE; Kd from total binding; settings: one partner purified

Kd [1]: 25 ± 5 nM
Kd [2]: 33 ± 10 nM
B1: 6xHis-Fc-sFNDC4 fusion protein (extracellular part of mouse FNDC4 fused with human IgG Fc) (Fc fusion)
chain: RPPSPVNVTVTHLRANSATVSWDVPEGNIVIGYSISQQRQNGPGQRVIREVNTTTRACALWGLAEDSDYTVQVRSIGLRGESPPGPRVHFRTLKGSDRLPSNSSSPGDITVEGLDGERPLQTGE
notes: extracellular part of mouse FNDC4 (sFNDC4), stated as aa 40-160; also called FcFNDC4; FcsF4; not shown: 6xHis, N-terminal, kept; Fc (human IgG), N-terminal, kept
